PMC6995573, “Critical Factors in Human Antizymes that Determine the Differential Binding, Inhibition, and Degradation of Human Ornithine Decarboxylase” (Biomolecules, 2019)
Like-named read-outs stand apart in the source and are kept apart here.

T1: Human ornithine decarboxylase (human, UniProt P11926 2-421)
T1 construct: ornithine decarboxylase (ODC), human; Homodimer when alone; also called ODC
T1 sequence: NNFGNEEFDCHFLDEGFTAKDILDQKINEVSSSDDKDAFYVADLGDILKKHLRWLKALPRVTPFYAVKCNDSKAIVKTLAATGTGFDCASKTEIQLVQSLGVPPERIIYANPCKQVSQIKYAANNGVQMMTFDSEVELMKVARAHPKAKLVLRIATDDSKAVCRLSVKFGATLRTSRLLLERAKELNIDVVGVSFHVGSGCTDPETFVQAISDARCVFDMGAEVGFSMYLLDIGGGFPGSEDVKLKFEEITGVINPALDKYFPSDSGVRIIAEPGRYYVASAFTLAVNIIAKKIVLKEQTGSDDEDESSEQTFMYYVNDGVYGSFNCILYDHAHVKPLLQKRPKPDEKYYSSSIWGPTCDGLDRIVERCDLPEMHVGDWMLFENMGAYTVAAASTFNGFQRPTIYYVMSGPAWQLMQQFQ

B1: AZ_(95–228) (domain or fragment)
chain: not shown
notes: also called C-terminal domain of AZ1
B2: AZ_(95–228)_D154A (domain or fragment)
chain: not shown
B3: AZ_(95–228)_E142A (domain or fragment)
chain: not shown
B4: AZ_(95–228)_E142A/H171A/K178A (domain or fragment)
chain: not shown
notes: also called non-α1 mutant
B5: AZ_(95–228)_E142A/K153A/D154A/E161A/E164A/E165A/H171A/K178A (domain or fragment)
chain: not shown
notes: also called hybrid octuple mutant
B6: AZ_(95–228)_E161A (domain or fragment)
chain: not shown
B7: AZ_(95–228)_E164A (domain or fragment)
chain: not shown
B8: AZ_(95–228)_E165A (domain or fragment)
chain: not shown
B9: AZ_(95–228)_H171A (domain or fragment)
chain: not shown
B10: AZ_(95–228)_K153A (domain or fragment)
chain: not shown
B11: AZ_(95–228)_K153A/D154A/E161A/E164A/E165A (domain or fragment)
chain: not shown
B12: AZ_(95–228)_K153A/E164A/E165A (domain or fragment)
chain: not shown
B13: AZ_(95–228)_K178A (domain or fragment)
chain: not shown
B14: AZ3_WT (natural protein, human, UniProt Q9UMX2 1-235, looked up)
chain: MPCKRCRPSVYSLSYIKRGKTRNYLYPIWSPYAYYLYCYKYRITLREKMLPRCYKSITYKEEEDLTLQPRSCLQCSESLVGLQEGKSTEQGNHDQLKELYSAGNLTVLATDPLLHQDPVQLDFHFRLTSQTSAHWHGLLCDRRLFLDIPYQALDQGNRESLTATLEYVEEKTNVDSVFVNFQNDRNDRGALLRAFSYMGFEVVRPDHPALPPLDNVIFMVYPLERDVGHLPSEPP
notes: antizyme 3 (AZ3), human; also called antizyme 3
B15: AZ1_D124S/E150Q/Q166K/N179D (natural protein)
chain: not shown
notes: antizyme 1 (AZ1), human; also called AZ1_4M
B16: AZ1_D124S/E150Q/Q166K/H171S/N179D (natural protein)
chain: not shown
notes: antizyme 1 (AZ1), human; also called AZ1_5M; AZ1_D124S/E150Q/Q166K/N179D/H171S
B17: AZ1_WT (natural protein)
chain: not shown
notes: antizyme 1 (AZ1), human; also called antizyme 1

What was measured:
[1] = target: T1, Human ornithine decarboxylase; assay: AUC; sedimentation velocity, 20 °C, 30 mM Tris-HCl pH 7.4, 25 mM NaCl; ODC fixed at 0.3 mg/mL, AZ 0.02-0.19 mg/mL (AZ/ODC molar ratio 0.25 to 3); all data sets fitted to the AB hetero-association model in SEDPHAT; conditions: both partners purified
[2] = target: T1, Human ornithine decarboxylase; assay: cell-based or functional assay
[3] = target: T1, Human ornithine decarboxylase; assay: AUC; sedimentation velocity, 20 °C, 30 mM Tris-HCl pH 7.4, 25 mM NaCl; ODC fixed at 0.3 mg/mL, AZ 0.02-0.19 mg/mL (AZ/ODC molar ratio 0.25 to 3); all data sets fitted to the AB hetero-association model in SEDPHAT; conditions: both partners purified; remark: listed apart in the source
[4] = target: T1, Human ornithine decarboxylase; assay: cell-based or functional assay; remark: listed apart in the source
[5] = target: T1, Human ornithine decarboxylase; assay: cell-based or functional assay; remark: listed apart in the source

| Binder | Kd [1] [nM] | IC50 of inhibition of ODC enzyme activity by AZ [2] [nM] | Kd [3] [nM] | IC50 of inhibition of ODC enzyme activity by AZ [4] [nM] | IC50 of inhibition of ODC enzyme activity by AZ [5] [nM] |
| --- | --- | --- | --- | --- | --- |
| B1 | 1150 ± 10 | 160 | – | – | – |
| B2 | 1700 ± 20 | 270 | – | – | – |
| B3 | 2200 ± 20 | 310 | – | – | – |
| B4 | 11500 ± 600 | – | – | – | – |
| B5 | 12400 ± 700 | – | – | – | – |
| B6 | 1110 ± 10 | 250 | – | – | – |
| B7 | 1680 ± 10 | 300 | – | – | – |
| B8 | 1730 ± 20 | 300 | – | – | – |
| B9 | 2030 ± 20 | 270 | – | – | – |
| B10 | 1210 ± 10 | 400 | – | – | – |
| B11 | 6810 ± 60 | – | – | – | – |
| B12 | 6580 ± 20 | 4130 | – | – | – |
| B13 | 3030 ± 20 | 310 | – | – | – |
| B14 | – | – | 1520 ± 10 | 610 | – |
| B15 | – | – | 950 ± 30 | – | 550 |
| B16 | – | – | 1780 ± 20 | – | 490 |
| B17 | – | – | 220 ± 10 | – | 230 |
